Test results: patent US8986682B2, “Method to increase the absorption of unsaturated fatty acids by human infants” (Swedish Orphan Biovitrum AB (publ), priority 2010, dated 2015)
Several values for one entry are separate records, joined by “and”; a condition that tells them apart may be missing. Equal entries are not always repeated. Marks after values point to notes of the source that are not given here.

Tested on: preterm infants born before week 32 of gestational age
Assay: Coefficient of fat absorption (CFA), fat balance of food and stool by gas chromatography, studies BVT.BSSL-020/-021
Type: in vivo, human
Design: Coefficient of Absorption of AA (C20:4 n-6), Minimum: concentration or dose not given beside the values
Conditions: for CFA (overall), LS Mean Difference (rhBSSL − Placebo) / CFA (overall), Maximum / CFA (overall), Mean (SD) / CFA (overall), Median / CFA (overall), Minimum: last 72 h of 7-day treatment
Procedure: Patients were randomized to infant formula/pasteurized breast milk supplemented with rhBSSL at a final concentration of 0.15 g/L, or to infant formula/pasteurized breast milk “supplemented” with sterile water for injection (as placebo) for the first 7 days. After a washout period of 2 days, the patient was “crossed over” to the other treatment regimen during a second 7-day treatment period. Collection of feces samples for CFA assessment were performed during the last 3 days (72 hours) of each treatment period.
The collection of feces for the determination of CFA was performed over a period corresponding to the fat, i.e., formula or milk, ingestion during 72 hours toward the end of each treatment period. Diapers supplied to each site were used for feces collection. During the two treatment periods, a carmine red tracer dye was given as a marker together with a meal (approximately at noon) on Day 4 and Day 13, respectively, and collection of stool commenced with the appearance of the first carmine red marker in the stool. The stool containing the first marker was collected and the date and time of the first stool collected was recorded on the CRF. At 72 hours following administration of the first red marker, the second carmine marker was given, and stool collection continued until the second carmine marker appeared. The stool containing the second marker was not collected, but the date and time of the appearance of the second marker was recorded on the CRF. Diapers were weighed before placement and after removal and the difference in weight was recorded on the CRF. The times of each collection and the elapsed duration of the entire collection period was also recorded on the CRF. The use of ointments for the treatment of skin irritation was prohibited during the stool collection period. Diapers were to be changed frequently during the collection period to keep the skin dry. Patients with skin rash severity leading to discontinuation of the stool collection were to be withdrawn from the study. Specific collection methods were provided in a separate laboratory manual. If applicable, vomit from the stool collection periods of both treatment periods was weighed. A small cloth/linen was weighed and placed under the head of each infant. When the cloth/linen was soiled with vomit, it was removed and re-weighed. If an additional cloth was used to remove vomit from the infant, that cloth was also weighed before and after use. The weight of vomit (total weight minus the weight of the cloth/linen) was recorded on the CRF. All other feed losses, e.g., formula or milk left in bottle, were measured and the amount accounted for in the calculation of the volume of formula consumed at each feeding.
Feces samples, the formula (study 020) and the milk aliquots (study 021) were analyzed by a central laboratory. Individual fatty acids, including the long-chain polyunsaturated fatty acids DHA and AA, were quantified in feces and feed by a gas chromatographic method following extraction by the Folch method. In both studies, the Omegawax 250 column (Supelco) was used for separation of the fatty acids. However, due to co-elution of DHA with nervonic acid (C24:1), which was only present in the breast milk, samples from patients of the per-protocol analysis set from study 021 were also analyzed using a SP-2380 column (Supelco) in order to quantify DHA for those samples from study 021. […] Total lipids were calculated as the sum of the individual fatty acids. (See Section 7.5.1). The same analytical principle was used to determine lipids in each of the batches of formula and aliquots of breast milk used in the study. […]

[1] = BVT.BSSL-021 (pasteurized breast milk), PP
[2] = BVT.BSSL-021 (pasteurized breast milk), PP, 72-hour collection period
[3] = BVT.BSSL-021 Pasteurized milk, PP
[4] = combined analysis, PP, post hoc
[5] = combined data, PP, 72-hour collection, rhBSSL (N = 46)

B1: rhBSSL: recombinant human bile-salt-stimulated lipase, SEQ ID. NO. 1, expressed from recombinant CHO cells; used in both clinical trials (protein, listed as Homo sapiens)
chain: AKLGAVYTEGGFVEGVNKKLGLLGDSVDIFKGIPFAAPTKALENPQPHPGWQGTLKAKNFKKRCLQATITQDSTYGDEDCLYLNIWVPQGRKQVSRDLPVMIWIYGGAFLMGSGHGANFLNNYLYDGEEIATRGNVIVVTFNYRVGPLGFLSTGDANLPGNYGLRDQHMAIAWVKRNIAAFGGDPNNITLFGESAGGASVSLQTLSPYNKGLIRRAISQSGVALSPWVIQKNPLFWAKKVAEKVGCPVGDAARMAQCLKVTDPRALTLAYKVPLAGLEYPMLHYVGFVPVIDGDFIPADPINLYANAADIDYIAGTNNMDGHIFASIDMPAINKGNKKVTEEDFYKLVSEFTITKGLRGAKTTFDVYTESWAQDPSQENKKKTVVDFETDVLFLVPTEIALAQHRANAKSAKTYAYLFSHPSRMPVYPKWVGADHADDIQYVFGKPFATPTGYRPQDRTVSKAMIAYWTNFAKTGDPNMGDSAVPTHWEPYTTENSGYLEITKKMGSSSMKRSLRTNFLRYWTLTYLALPTVTDQEATPVPPTGDSEATPVPPTGDSETAPVPPTGDSGAPPVPPTGDSGAPPVPPTGDSGAPPVPPTGDSGAPPVPPTGDSGAPPVPPTGDSGAPPVPPTGDSGAPPVPPTGDAGPPPVPPTGDSGAPPVPPTGDSGAPPVTPTGDSETAPVPPTGDSGAPPVPPTGDSEAAPVPPTDDSKEAQMPAVIRF
In the case of B1, the “CFA for C20:3 n-6 (sum of C20:3 n-6 and C20:3 n-3), Difference (rhBSSL − Placebo)” value [1] is reported as 8.91* %, the “CFA for C20:4 n-6 (AA)” value [1] is reported as 72.10% and the “CFA for C20:4 n-6 (AA), Difference (rhBSSL − Placebo)” value [1] is reported as 10.82* %. For the same molecule, the “CFA for C22:6 n-3 (DHA)” value [1] was 78.49%, the “CFA for C22:6 n-3 (DHA), Difference (rhBSSL − Placebo)” value [1] was 4.72* % and the “CFA for C24:1” value [1] was 36.85%. The “CFA for C24:1, Difference (rhBSSL − Placebo)” value [1] was 7.68%, the “Total Amount of Fat in Stool, Maximum” value [2] was 13.3 g and the “Total Amount of Fat in Stool, Mean (SD)” value [2] was 6.16 g and 6.16 (3.550) g. For the same molecule, the “Total Amount of Fat in Stool, Median” value [2] was 4.99 g, the “Total Amount of Fat in Stool, Minimum” value [2] was 0.9 g and the “Coefficient of absorption of the sum of all LCPUFAs, LS mean” value [3] was 70.2%. For the same molecule, the “Coefficient of absorption of the sum of all LCPUFAs, LS mean difference (rhBSSL-Placebo)” value [3] was 8.02%, the “Coefficient of absorption of the sum of all polyunsaturated fatty acids, LS mean” value [3] was 70.7% and the “Coefficient of absorption of the sum of all polyunsaturated fatty acids, LS mean difference (rhBSSL-Placebo)” value [3] was 6.92%. The “Coefficient of absorption of the sum of all saturated fatty acids, LS mean” value [3] was 66.1%, the “Coefficient of absorption of the sum of all saturated fatty acids, LS mean difference (rhBSSL-Placebo)” value [3] was 4.36% and the “Coefficient of absorption of the sum of all unsaturated fatty acids, LS mean” value [3] was 70.6%. The “Coefficient of absorption of the sum of all unsaturated fatty acids, LS mean difference (rhBSSL-Placebo)” value [3] was 5.10%, the “CFA for C12:0” value [4] was 88.86% and the “CFA for C12:0, Difference (rhBSSL − Placebo)” value [4] was 2.42%. The “CFA for C14:0 (myristic acid)” value [4] was 76.15%, the “CFA for C14:0 (myristic acid), Difference (rhBSSL − Placebo)” value [4] was 4.81% and the “CFA for C16:0” value [4] was 55.49%. For the same molecule, the “CFA for C16:0, Difference (rhBSSL − Placebo)” value [4] was 2.61%, the “CFA for C18:0” value [4] was 44.28% and the “CFA for C18:0, Difference (rhBSSL − Placebo)” value [4] was 1.51%. The “CFA for C18:1” value [4] was 73.66%, the “CFA for C18:1, Difference (rhBSSL − Placebo)” value [4] was 3.65% and the “CFA for C18:2 n-6 (linoleic acid)” value [4] was 77.49%. For the same molecule, the “CFA for C18:2 n-6 (linoleic acid), Difference (rhBSSL − Placebo)” value [4] was 5.79%, the “CFA for C18:3 n-3 (alpha-linolenic acid)” value [4] was 76.31% and the “CFA for C18:3 n-3 (alpha-linolenic acid), Difference (rhBSSL − Placebo)” value [4] was 3.66%. For the same molecule, the “Total Amount of Fat in Stool, Maximum” value [5] was 15.0 g, the “Total Amount of Fat in Stool, Mean (SD)” value [5] was 7.50 g and 7.50 (3.635) g and the “Total Amount of Fat in Stool, Median” value [5] was 7.05 g. The “Total Amount of Fat in Stool, Minimum” value [5] was 0.9 g, the “Total Amount of Fat in Stool, Mean (SD)” value (combined data, PP, second column also headed rhBSSL (N = 46), placebo according to b324) was 8.36 (4.018) g and the “Coefficient of Absorption of AA (C20:4 n-6), LS Mean” value (combined studies 020+021, FAS) was 77.60%. The “Coefficient of Absorption of AA (C20:4 n-6), LS Mean Difference (rhBSSL − Placebo)” value (combined studies 020+021, FAS) was 8.70%, the “Coefficient of Absorption of AA (C20:4 n-6), Maximum” value (combined studies 020+021, FAS) was 100.0% and the “Coefficient of Absorption of AA (C20:4 n-6), Mean (SD)” value (combined studies 020+021, FAS) was 77.88 (17.628) %. The “Coefficient of Absorption of AA (C20:4 n-6), Median” value (combined studies 020+021, FAS) was 81.28%, the “Coefficient of Absorption of AA (C20:4 n-6), Minimum” value (combined studies 020+021, FAS) was 26.6% and the “Coefficient of Absorption of DHA (C22:6 n-3), LS Mean” value (combined studies 020+021, FAS) was 77.91%. For the same molecule, the “Coefficient of Absorption of DHA (C22:6 n-3), LS Mean Difference (rhBSSL − Placebo)” value (combined studies 020+021, FAS) was 6.24%, the “Coefficient of Absorption of DHA (C22:6 n-3), Maximum” value (combined studies 020+021, FAS) was 100.0% and the “Coefficient of Absorption of DHA (C22:6 n-3), Mean (SD)” value (combined studies 020+021, FAS) was 77.97 (16.251) %. The “Coefficient of Absorption of DHA (C22:6 n-3), Median” value (combined studies 020+021, FAS) was 81.22%, the “Coefficient of Absorption of DHA (C22:6 n-3), Minimum” value (combined studies 020+021, FAS) was 26.8% and the “CFA (overall), LS Mean Difference (rhBSSL − Placebo)” value (combined studies 020+021, FAS) was 3.70%. For the same molecule, the “CFA (overall), Maximum” value (combined studies 020+021, FAS) was 93.2%, the “CFA (overall), Mean (SD)” value (combined studies 020+021, FAS) was 67.80 (16.663) % and the “CFA (overall), Median” value (combined studies 020+021, FAS) was 71.09%. The “CFA (overall), Minimum” value (combined studies 020+021, FAS) was 11.7%, the “Coefficient of Absorption of AA (C20:4 n-6), LS Mean” value (combined studies 020+021, PP) was 77.36% and the “Coefficient of Absorption of AA (C20:4 n-6), LS Mean Difference (rhBSSL − Placebo)” value (combined studies 020+021, PP) was 8.63%. For the same molecule, the “Coefficient of Absorption of AA (C20:4 n-6), Maximum” value (combined studies 020+021, PP) was 100.0%, the “Coefficient of Absorption of AA (C20:4 n-6), Mean (SD)” value (combined studies 020+021, PP) was 78.01 (16.881) % and the “Coefficient of Absorption of AA (C20:4 n-6), Median” value (combined studies 020+021, PP) was 81.01%. For the same molecule, the “Coefficient of Absorption of AA (C20:4 n-6), Minimum” value (combined studies 020+021, PP) was 26.6%, the “Coefficient of Absorption of DHA (C22:6 n-3), LS Mean” value (combined studies 020+021, PP) was 79.83% and the “Coefficient of Absorption of DHA (C22:6 n-3), LS Mean Difference (rhBSSL − Placebo)” value (combined studies 020+021, PP) was 5.80%. The “Coefficient of Absorption of DHA (C22:6 n-3), Maximum” value (combined studies 020+021, PP) was 100.0%, the “Coefficient of Absorption of DHA (C22:6 n-3), Mean (SD)” value (combined studies 020+021, PP) was 79.76 (14.075) % and the “Coefficient of Absorption of DHA (C22:6 n-3), Median” value (combined studies 020+021, PP) was 82.90%. For the same molecule, the “Coefficient of Absorption of DHA (C22:6 n-3), Minimum” value (combined studies 020+021, PP) was 42.2%, the “CFA (overall), LS Mean Difference (rhBSSL − Placebo)” value (combined studies 020+021, PP) was 3.56% and the “CFA (overall), Maximum” value (combined studies 020+021, PP) was 93.2%. The “CFA (overall), Mean (SD)” value (combined studies 020+021, PP) was 69.08% and 69.08 (14.683) %, the “CFA (overall), Median” value (combined studies 020+021, PP) was 71.83% and the “CFA (overall), Minimum” value (combined studies 020+021, PP) was 31.2%. The “Relative increase of overall CFA compared to the LS mean for placebo” value (combined studies, PP) was 5.4% and the “Relative increase of overall CFA compared to the LS mean for placebo” value (formula-fed infants (BVT.BSSL-020), PP) was 3.1%.
